From US20170128554A1 (NEW ENGLAND BIOLABS, published 2017)
Residue numbers refer to the chain shown, from its start. Names may count otherwise.

B1: SNAP-Fbs (wild type Fbs sugar binding domain fused to SNAP-tag) (other)
chain: MGSSHHHHHHGDKDCEMKRTTLDSPLGKLELSGCEQGLHEIKLLGKGTSAADAVEVPAPAAVLGGPEPLMQATAWLNAYFHQPEAIEEFPVPALHHPVFQQESFTRQVLWKLLKVVKFGEVISYQQLAALAGNPAATAAVKTALSGNPVPILIPCHRVVSSSGAVGGYEGGLAVKEWLLAHEGHRLGKPGLGPAAIGAPGSGSGSPAGCQQEGLVPEGGVEEERDHWQQFYFLSKRRRNLLRNPCGEEDLEGWCDVEHGGDGWRVEELPGDSGVEFTHDESVKKYFASSFEWCRKAQVIDLQAEGYWEELLDTTQPAIVVKDWYSGRSDAGCLYELTVKLLSEHENVLAEFSSGQVAVPQDSDGGGWMEISHTFTDYGPGVRFVRFEHGGQDSVYWKGWFGARVTNSSVWVEP
notes: also called SNAP-wtFbs; wtFbs
B2: SNAP-tagged Fbs GYR mutant conjugated to BG beads (other)
chain: B1 chain with S272G, F290Y, E291R
notes: also called S155G+YR
B3: SNAP-tagged Fbs PPRYR mutant conjugated to BG beads (other)
chain: B1 chain with D271P, S272P, G273R, F290Y, E291R

Experiments:
[1] = biological target: Sialylglycopeptide (SGP, Fushimi Pharmaceutical Co.); test: isothermal titration calorimetry, […] (2 M NaCl), […]
[2] = biological target: Sialylglycopeptide (SGP, Fushimi Pharmaceutical Co.); test: isothermal titration calorimetry, […] (50 mM NaCl), […]
[3] = biological target: T1, SGP-TMR (sialylglycopeptide labeled with two tetramethylrhodamine fluorophores); test: SGP-TMR pull-down on Fbs beads, low salt volatile buffer, fluorescence
T1 construct: also called sialylated SGP
Method: SNAP-Fbs is efficiently conjugated to BG beads (SNAP Capture Pull-Down resin (New England Biolabs, Ipswich, Mass.): SNAP-Fbs protein is reacted with BG beads at 4° C. overnight in a DTT-containing buffer (4 mM DTT, 20 mM tris-HCl pH 7.5, 1 mM EDTA, 50 mM NaCl). After the conjugation reaction, SNAP-Fbs beads are washed with 40× bead volume of low salt buffer.
Fbs binding to complex N-glycan linked glycomolecules is substantially unbiased in a high salt buffer. SGP was labeled with two tetramethylrhodamine (TMR) fluorophores on the peptide portion via lysine residues according to the TMR protein labeling kit protocol (Genaxxon Bioscience, Ulm Germany). After TMR labeling, a fraction of the SGP-TMR sample was processed with neuraminidase (New England Biolabs, Ipswich, Mass.) to remove terminal sialic acid residues. Two binding conditions (LS, low salt buffer and HS, high salt buffer) were tested. […] TMR Fluorescence in the supernatant was measured using a SpectraMax M5 fluorometer (excitation 555 nm and emission 595 nm with 590 nm cutoff). Binding of SGP-TMR to Fbs (y-axis) is determined by subtracting the fluorescence measured in the bead supernatant from the input fluorescence.
SGP-TMR affinity to the Fbs in low salt volatile buffer was analyzed by a pull-down assay using SNAP Capture Pull-Down resin conjugated with equal amounts of WT, GYR or PPRYR Fbs proteins (FIG. 10B). […]

Binder	Kd [1] [nM]	Kd [2] [nM]	fold increased affinity, against WT Fbs [3] [fold]
B1	1430	3000	
B2			3
B3			2
